Data on 30 molecules can be found in patent US20060264378A1 (BIOKINE THERAPEUTICS, published 2006).

The target of experiment [1] is T1, CXCR4 receptor (human, UniProt P61073 1-352).
T1 construct: whole, on cells; Endogenous receptor on human cells
Briefly: displacement of 125I-CXCL12 from Jurkat cells, filter binding. As to the method: 50 μL of Jurkat human T-cell leukemia cells (6×10⁶ cells/mL) suspended in buffer (Dulbecco's PBS solution (pH 7.0) containing 0.5% BSA, 20 mM HEPES), 25 μL of test compounds (Table 2: each compound being synthesized in the form of acetate salt) diluted by buffer and 25 μL of 200 p M 125I-CXCL12 solution were respectively dispensed to each well of the plate, and were subjected to fixation reaction for 1 hour at room temperature. After reaction, suction was made toward the reaction solution by 96 well GF/C filter plate, and each well's radioactivity was measured by top count. As the radioactivity index of 100% when the test compound was not added, and 0% when 100 nM of non-radioisotope-labeled CXCL12 was added, the inhibitory activity of each test compound was measured.
In general terms: Loss of bound radioactivity is the signal in a displacement assay; it reports binding, not function.

Experiment [2] addresses T1, CXCR4 receptor. The experiment is described as follows: cell-based or functional assay.
In experiment [3] the target is CXCR4 on mouse splenocytes (mouse, UniProt P70658 1-359). The experiment is described as follows: cell-based or functional assay.

Numbered stars: 1 amine (or outer) side, 2 acyl side, 3 side chain; on linkers, the order of the positions; unused ones are H or OH. Bridge positions count the residues as written; N and C are the ends. Square brackets hold non-standard residues; d marks the D form. Ends that are not written are not given here. * marks the point of attachment. deaminoTMG = tetramethylguanyl on 5-aminopentanoyl (deaminoTMG-APA, formula II); guanyl = guanyl, N-terminal group, N=C(N)*; 2Nal = N[C@@H](Cc1ccc2ccccc2c1)C(=O)O; Glutaryl = O=C(CCCC(=O)[*:2])[*:1]; Benzoyl(4-F) = O=C(c1ccc(F)cc1)*; dCit = NC(=O)NCCC[C@@H](N)C(=O)O; Cit = NC(=O)NCCC[C@H](N)C(=O)O; Suc = O=C(CCC(=O)[*:2])[*:1]; Ahx = NCCCCCC(=O)O; Ava = NCCCCC(=O)O

T1 sequence (P61073 whole entry): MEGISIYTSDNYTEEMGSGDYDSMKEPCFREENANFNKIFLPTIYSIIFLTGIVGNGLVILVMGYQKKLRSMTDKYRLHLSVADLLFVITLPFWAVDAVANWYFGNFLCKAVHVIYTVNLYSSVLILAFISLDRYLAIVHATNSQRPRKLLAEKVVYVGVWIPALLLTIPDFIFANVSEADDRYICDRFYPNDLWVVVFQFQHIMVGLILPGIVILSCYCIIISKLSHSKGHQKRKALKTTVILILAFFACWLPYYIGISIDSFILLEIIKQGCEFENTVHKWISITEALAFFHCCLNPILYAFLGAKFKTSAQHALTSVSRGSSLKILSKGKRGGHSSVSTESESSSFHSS
Sequence of CXCR4 on mouse splenocytes (P70658 whole entry): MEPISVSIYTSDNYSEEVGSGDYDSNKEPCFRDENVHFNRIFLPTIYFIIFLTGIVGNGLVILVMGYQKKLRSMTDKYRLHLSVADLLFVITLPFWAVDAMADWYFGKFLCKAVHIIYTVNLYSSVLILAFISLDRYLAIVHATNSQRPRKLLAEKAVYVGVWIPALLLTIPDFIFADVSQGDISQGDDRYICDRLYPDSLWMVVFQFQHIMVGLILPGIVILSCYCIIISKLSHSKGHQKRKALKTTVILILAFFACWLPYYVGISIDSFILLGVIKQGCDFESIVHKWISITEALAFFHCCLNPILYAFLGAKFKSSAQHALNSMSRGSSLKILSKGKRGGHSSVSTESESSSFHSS

B1: TF18 (peptide)
peptide: XRRXCYXKXPYRXCRX
modifications: N-terminal tetramethylguanyl; Nal (L-3-(2-naphthyl)alanine) at 3; Cit (L-citrulline) at 6 and 12; D-Cit (D-citrulline) at 8; disulfide Cys4-Cys13; C-terminal amide (-NH2)
For the molecule B1, the IC50 – broadly, the midpoint of a concentration-inhibition curve – in the experiment with CXCR4 receptor [1] came to 8 nM.

B2: TF13 (peptide)
peptide: {nelfinaviryl-Suc}-R[2Nal]CY[Cit]K[dE]PYR[Cit]CR-NH2
modifications: disulfide 3-12; also: acetate salt
Turning to B2, in the experiment with CXCR4 receptor [1], the IC50 was found to be 21 nM.

B3: TE14006 (peptide)
peptide: H-RR[2Nal]CYRK[dK]PYE[Cit]CR-OH
modifications: disulfide 4-13 (inferred); also: acetate salt
On to B3, for which the half-maximal inhibitory concentration (IC50) with CXCR4 receptor [1] stood at 5.6 nM.

B4: TE14013 (peptide)
peptide: H-RR[2Nal]CY[dE]K[dE]PYR[Cit]CR-NH2
modifications: disulfide 4-13; also: acetate salt
Consider B4, for which the IC50 with CXCR4 receptor [1] was found to be 9.3 nM.

B5: TF11 (peptide)
peptide: Glutaryl-R[2Nal]CY[Cit]K[dE]PYR[Cit]CR-NH2
modifications: disulfide 3-12; also: acetate salt
For the molecule B5, the IC50 in the experiment with CXCR4 receptor [1] came to 630 nM.

B6: TF6 (peptide)
peptide: {2‑fluorobenzoyl}-RR[2Nal]CY[Cit]K[dE]PYR[Cit]CR-NH2
modifications: disulfide 4-13; also: acetate salt
With B6, in the experiment with CXCR4 receptor [1], the IC50 amounted to 3.9 nM.

B7: TF7 (peptide)
peptide: {5‑aminopentanoyl}-R[2Nal]CY[Cit]K[dE]PYR[Cit]CR-NH2
modifications: disulfide 3-12; also: acetate salt
For B7, in the experiment with CXCR4 receptor [1], the IC50 was 5.7 nM.

B8: TF14 (peptide)
peptide: {AZT-Glutaryl}-R[2Nal]CY[Cit]K[dE]PYR[Cit]CR-NH2
modifications: disulfide 3-12; also: acetate salt
Consider B8, for which, in the experiment with CXCR4 receptor [1], the IC50 is 49 nM.

B9: TF8 (peptide)
peptide: {2‑desamino‑arginyl}-R[2Nal]CY[Cit]K[dE]PYR[Cit]CR-NH2
modifications: disulfide 3-12; also: acetate salt
The molecule B9 came in with an IC50 in the experiment with CXCR4 receptor [1] of 8.2 nM. Compared with the last molecule, the IC50 is about 6-fold lower.

B10: TF5 (peptide)
peptide: {Benzoyl(4-F)}-RR[2Nal]CY[Cit]K[dE]PYR[Cit]CR-NH2
modifications: disulfide 4-13; also: acetate salt
Regarding B10, the IC50 with CXCR4 receptor [1] amounted to 2.8 nM.

B11: TN14003 (peptide)
peptide: H-RR[2Nal]CY[Cit]K[dK]PYR[Cit]CR-NH2
modifications: disulfide 4-13; also: acetate salt
notes: Tested as acetate salt
The molecule B11 had an IC50 with CXCR4 receptor [1] of 2.6 nM.

B12: TE14002 (peptide)
peptide: H-RE[2Nal]CYRK[dK]PYR[Cit]CR-OH
modifications: disulfide 4-13; also: acetate salt
Consider B12, for which the IC50 with CXCR4 receptor [1] turned out to be 680 nM.

B13: TF19 (peptide)
peptide: XRRXCYXKXPYRXCRX
modifications: N-terminal 6-aminohexanoyl (ACA); Nal (L-3-(2-naphthyl)alanine) at 3; Cit (L-citrulline) at 6 and 12; D-Cit (D-citrulline) at 8; disulfide Cys4-Cys13; C-terminal amide (-NH2)
B13: the IC50 with CXCR4 receptor [1] is 4.5 nM.

B14: TE14005 (peptide)
peptide: H-RR[2Nal]CYRK[dE]PYR[Cit]CR-OH
modifications: disulfide 4-13; also: acetate salt
In the experiment with CXCR4 receptor [1], B14 returned an IC50 of 2.2 nM.

B15: TF20 (peptide)
peptide: [Ahx]RR[2Nal]CYRK[dK]PYR[Cit]CR-OH
modifications: disulfide 5-14; also: acetate salt
As to B15, the IC50 with CXCR4 receptor [1] stood at 3.5 nM.

B16: TF2 (peptide)
peptide: guanyl-RR[2Nal]CY[Cit]K[dE]PYR[Cit]CR-NH2
modifications: disulfide 4-13; also: acetate salt
For the molecule B16, the IC50 with CXCR4 receptor [1] amounted to 3.3 nM.

B17: TF1 (peptide)
peptide: Ac-RR[2Nal]CY[Cit]K[dE]PYR[Cit]CR-NH2
modifications: disulfide 4-13; also: acetate salt
With B17, the IC50 in the experiment with CXCR4 receptor [1] came out at 11 nM.

B18: TE14011 (peptide)
peptide: H-RR[2Nal]CY[Cit]K[dE]PYR[Cit]CR-NH2
modifications: disulfide 4-13; also: acetate salt
On to B18, for which, in the experiment with CXCR4 receptor [1], the IC50 was determined as 2.9 nM.

B19: TF10 (peptide)
peptide: Suc-R[2Nal]CY[Cit]K[dE]PYR[Cit]CR-NH2
modifications: disulfide 3-12; also: acetate salt
Turning to B19, the IC50 in the experiment with CXCR4 receptor [1] stood at 48 nM.

B20: TE14012 (peptide)
peptide: H-RR[2Nal]CY[dE]K[dCit]PYR[Cit]CR-NH2
modifications: disulfide 4-13 (inferred); also: acetate salt
As for B20, in the experiment with CXCR4 receptor [1], the IC50 stood at 5.4 nM.

B21: TF9 (peptide)
peptide: guanyl-R[2Nal]CY[Cit]K[dE]PYR[Cit]CR-NH2
modifications: disulfide 3-12; also: acetate salt
With B21, the IC50 with CXCR4 receptor [1] is 250 nM.

B22: TF17 (peptide)
peptide: H-R[2Nal]CY[Cit]K[dE]PYR[Cit]CR-NH2
modifications: disulfide 3-12; also: acetate salt
Regarding B22, the IC50 in the experiment with CXCR4 receptor [1] was 79 nM.

B23: TE14004 (peptide)
peptide: H-RR[2Nal]CYRE[dK]PYR[Cit]CR-OH
modifications: disulfide 4-13 (inferred); not fully specified; printed as H-Arg-Arg-Nal-Cys-Tyr-Arg-Glu-DLys-Pro-Tyr-Arg-Cit-Cys-Arg-OH; also: acetate salt
For B23, the IC50 with CXCR4 receptor [1] was 6.8 nM.

B24: TF15 (peptide)
peptide: H-RR[2Nal]CY[Cit]K[dE]PYR[Cit]CR-NH2
modifications: disulfide 4-13; also: reduced CH2-NH bond between residues 1 and 2, acetate salt
B24: the IC50 in the experiment with CXCR4 receptor [1] was determined as 95 nM.

B25: TF4 (peptide)
peptide: tetramethylguanyl-R[2Nal]CY[Cit]K[dE]PYR[Cit]CR-NH2
modifications: disulfide 3-12; also: acetate salt
The molecule B25 yielded an IC50 with CXCR4 receptor [1] of 9.9 nM.

B26: TF3 (peptide)
peptide: tetramethylguanyl-RR[2Nal]CY[Cit]K[dE]PYR[Cit]CR-NH2
modifications: disulfide 4-13; also: acetate salt
In turn, B26 came in with an IC50 in the experiment with CXCR4 receptor [1] of 9.6 nM.

B27: TC14012 (peptide)
peptide: RRXCYXKXPYRXCR
modifications: X at 3 = Nal (L-3-(2-naphthyl)alanine); X at 6 and 12 = Cit (L-citrulline); X at 8 = D-Cit (D-citrulline); disulfide Cys4-Cys13; free N-terminus (H-); C-terminal amide (-NH2)
notes: Tested as acetate salt
On to B27, for which, in the experiment with CXCR4 receptor [1], the IC50 was 2.7 nM.

B28: TF12 (peptide)
peptide: {deaminoTMG-Ava}-R[2Nal]CY[Cit]K[dE]PYR[Cit]CR-NH2
modifications: disulfide 3-12; also: acetate salt
B28: the IC50 in the experiment with CXCR4 receptor [1] stood at 4.6 nM.

B29: 4F-benzoyl-TN14003 (peptide)
peptide: {Benzoyl(4-F)}-RR[2Nal]CY[Cit]K[dK]PYR[Cit]CR-NH2
modifications: disulfide 4-13; also: acetate salt
Turning to B29, the IC50 of inhibition of SDF-1α-induced migration of Jurkat cells (Transwell) with CXCR4 receptor [2] stood at 0.65 nM. The “IC50 of inhibition of SDF-1-induced migration of mouse splenocytes (Transwell)” value in experiment [3] worked out at 0.54 nM. In the experiment with CXCR4 receptor [1], this molecule displayed an IC50 of 0.99 nM.

B30: TE14003 (peptide)
peptide: H-RR[2Nal]CYEK[dK]PYR[Cit]CR-OH
modifications: disulfide 4-13 (inferred); not fully specified; printed as H-Arg-Arg-Nal-Cys-Tyr-Glu-Lys-DLys-Pro-Tyr-Arg-Cit-Cys-Arg-OH; also: acetate salt
In the experiment with CXCR4 receptor [1], B30 showed an IC50 of 5 nM.
